The target of experiment [1] is HVEM(200t), soluble herpesvirus entry mediator (UniProt Q92956). The experiment in a line: SPR. For orientation: SPR reads the build-up and loss of mass on a sensor chip optically.
Experiment [2] concerns the target T1, nectin-1(346t), soluble nectin-1 (UniProt Q15223 31-346).
T1 sequence (looked up): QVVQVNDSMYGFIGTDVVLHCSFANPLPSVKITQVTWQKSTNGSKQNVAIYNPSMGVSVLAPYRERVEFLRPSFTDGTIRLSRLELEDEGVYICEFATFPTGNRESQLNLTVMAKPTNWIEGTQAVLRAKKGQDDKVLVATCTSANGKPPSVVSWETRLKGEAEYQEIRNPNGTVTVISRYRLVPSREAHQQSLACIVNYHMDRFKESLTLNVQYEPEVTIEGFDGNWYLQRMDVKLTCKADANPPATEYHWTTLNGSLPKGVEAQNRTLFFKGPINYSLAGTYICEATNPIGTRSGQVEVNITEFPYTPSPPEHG
The experiment in a line: SPR.

The Kd is a measure of binding affinity in units of concentration. A low value points to tighter binding.

The molecule “gD(3C-38C)306t (from UniProt Q69091 26-331) (domain or fragment)” registered a dissociation constant (Kd) in experiment [1] of 2390 nM.

B1: gD(306t), soluble ectodomain of HSV-1 glycoprotein D (domain or fragment)
chain: KYALADASLKMADPNRFRGKDLPVLDQLTDPPGVRRVYHIQAGLPDPFQPPSLPITVYYAVLERACRSVLLNAPSEAPQIVRGASEDVRKQPYNLTIAWFRMGGNCAIPITVMEYTECSYNKSLGACPIRTQPRWNYYDSFSAVSEDNLGFLMHAPAFETAGTYLRLVKINDWTEITQFILEHRAKGSCKYALPLRIPPSACLSPQAYQQGVTVDSIGMLPRFIPENQRTVAVYSLKIAGWHGPKAPYTSTLLPPELSETPNATQPELAPEDPEDSALLEDPVGTVAPQIPPNWHIPSIQDAATPY
B1 registered a Kd in experiment [2] of 1740 nM.

B2: gD(285t) (domain or fragment)
chain: KYALADASLKMADPNRFRGKDLPVLDQLTDPPGVRRVYHIQAGLPDPFQPPSLPITVYYAVLERACRSVLLNAPSEAPQIVRGASEDVRKQPYNLTIAWFRMGGNCAIPITVMEYTECSYNKSLGACPIRTQPRWNYYDSFSAVSEDNLGFLMHAPAFETAGTYLRLVKINDWTEITQFILEHRAKGSCKYALPLRIPPSACLSPQAYQQGVTVDSIGMLPRFIPENQRTVAVYSLKIAGWHGPKAPYTSTLLPPELSETPNATQPELAPEDPEDSALLEDPVGT
Turning to B2, in experiment [2], the Kd came to 71.3 nM.

B3: gD(23-285t) (domain or fragment)
chain: PVLDQLTDPPGVRRVYHIQAGLPDPFQPPSLPITVYYAVLERACRSVLLNAPSEAPQIVRGASEDVRKQPYNLTIAWFRMGGNCAIPITVMEYTECSYNKSLGACPIRTQPRWNYYDSFSAVSEDNLGFLMHAPAFETAGTYLRLVKINDWTEITQFILEHRAKGSCKYALPLRIPPSACLSPQAYQQGVTVDSIGMLPRFIPENQRTVAVYSLKIAGWHGPKAPYTSTLLPPELSETPNATQPELAPEDPEDSALLEDPVGT
In experiment [2], B3 displayed a Kd of 65.7 nM.

(Values after PMC3979344 (Virology, 2013).)
